# Assay results from patent publication US20190309066A1 (ARCH ONCOLOGY, published 2019).
# B1: VLX9 IgG2 (xi) (antibody)
# heavy: QVQLQQFGAELAKPGASVQMSCKASGYTFTNYWIHWVKQRPGQGLEWIGYTDPRTDYTEYNQKFKDKATLAADRSSSTAYMRLSSLTSEDSAVYYCAGGGRVGLGYWGHGSSVTVSSASTKGPSVFPLAPCSRSTSESTAALGCLVKDYFPEPVTVSWNSGALTSGVHTFPAVLQSSGLYSLSSVVTVPSSNFGTQTYTCNVDHKPSNTKVDKTVERKCCVECPPCPAPPVAGPSVFLFPPKPKDTLMISRTPEVTCVVVDVSHEDPEVQFNWYVDGVEVHNAKTKPREEQFNSTFRVVSVLTVVHQDWLNGKEYKCKVSNKGLPAPIEKTISKTKGQPREPQVYTLPPSREEMTKNQVSLTCLVKGFYPSDIAVEWESNGQPENNYKTTPPMLDSDGSFFLYSKLTVDKSRWQQGNVFSCSVMHEALHNHYTQKSLSLSPGK
# light: DVFMTQTPLSLPVSLGDQASISCRSSQNIVQSNGNTYLEWYLQKPGQSPKLLIYKVFHRFSGVPDRFSGSGSGTDFTLKISRVEAEDLGVYYCFQGSHVPWTFGGGTKVEIKRTVAAPSVFIFPPSDEQLKSGTASVVCLLNNFYPREAKVQWKVDNALQSGNSQESVTEQDSKDSTYSLSSTLTLSKADYEKHKVYACEVTHQGLSSPVTKSFNRGEC
# notes: murine-human chimera; also called VLX9 IgG2 chimera (xi)
# Target: T1, human CD47 expressed on cells (human, UniProt Q08722 19-292)
# T1 construct: also called hCD47; integrin-associated protein
# Test: flow cytometry on freshly isolated human RBCs, FITC-labelled donkey anti-human antibody, MFI
# Protocol: FIG. 7. Binding of VLX9 Humanized mAbs to Human RBCs. […] RBCs were incubated for 60 minutes at 37° C. with various concentrations of VLX9 mAbs, washed and incubated for 1 hr with FITC-labelled donkey anti-human antibody. Cells were washed and antibody binding measured using flow cytometry.
# Binding activities of chimeric and humanized VLX4, VLX8, and VLX9 mAbs to human CD47 on hRBCs were also determined using flow cytometry.
# T1 sequence (Q08722 other isoform, or with tags, fused parts or gaps limits assumed): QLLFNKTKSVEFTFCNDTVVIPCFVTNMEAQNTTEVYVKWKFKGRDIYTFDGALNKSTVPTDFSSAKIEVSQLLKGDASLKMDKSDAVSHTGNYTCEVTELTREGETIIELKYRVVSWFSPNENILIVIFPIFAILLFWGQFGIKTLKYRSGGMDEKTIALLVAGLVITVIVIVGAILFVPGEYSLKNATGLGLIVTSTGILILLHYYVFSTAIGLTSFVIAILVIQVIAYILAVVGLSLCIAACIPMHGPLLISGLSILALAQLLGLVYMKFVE
binder,measurement,value
B1,EC50 (read off the curve),~500 pM
